Laboratory results from the supplement of paper PMC9112550, “Optimization of the antimicrobial peptide Bac7 by deep mutational scanning” (BMC Biology, 2022).

system: Escherichia coli TOP10; experiment: shrunken log2 fold change of peptide-encoding DNA abundance (4.5 h post-induction vs induction); higher = less antimicrobial activity (less host growth inhibition); conditions: time post-induction: 4.5 h; library: site-saturation at positions 5, 18, 19, 20
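Further: peptides expressed intracellularly from a pBAD plasmid library in pooled LB shake-flask culture, induced with 0.3% L-arabinose, DNA abundance read by NGS, three biological replicates, DESeq2 with apeglm shrinkage.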

First: RRIRWRPPRLPRPRPRPASAPRP
Second: RRIRSRPPRLPRPRPRPGHHPRP
The “shrunken log2 fold change” value of the first is higher: 0.298 for the first, -0.0988 for the second.

First: RRIRWRPPRLPRPRPRPPLHPRP
Second: RRIRDRPPRLPRPRPRPPFHPRP
The “shrunken log2 fold change” value of the first is higher: 0.417 for the first, 0.0293 for the second.

RRIRARPPRLPRPRPRPYMGPRP and RRIRSRPPRLPRPRPRPNGDPRP are within 0.2 log units of each other in “shrunken log2 fold change” value: 0.0124 for the first, -0.0155 for the second.

Going from RRIRSRPPRLPRPRPRPPNRPRP to RRIRSRPPRLPRPRPRPSPIPRP, the “shrunken log2 fold change” value falls from 0.238 to -0.467.

RRIRNRPPRLPRPRPRPIGMPRP and RRIRPRPPRLPRPRPRPRGTPRP are within 0.2 log units of each other in “shrunken log2 fold change” value: -0.0748 for the first, 0.0776 for the second.

First: RRIRFRPPRLPRPRPRPKLIPRP
Second: RRIRMRPPRLPRPRPRPCCPPRP
The “shrunken log2 fold change” value of the first is lower: -0.565 for the first, -0.0946 for the second.

Going from RRIRSRPPRLPRPRPRPCPWPRP to RRIRDRPPRLPRPRPRPYKNPRP, the “shrunken log2 fold change” value falls from -0.115 to -0.454.

RRIRDRPPRLPRPRPRPHLNPRP and RRIRIRPPRLPRPRPRPSHPPRP are within 0.2 log units of each other in “shrunken log2 fold change” value: -0.152 for the first, -0.245 for the second.

Compared with RRIRCRPPRLPRPRPRPPMDPRP, RRIRKRPPRLPRPRPRPQLFPRP is higher in “shrunken log2 fold change” value: 0.0314 for the first, 0.364 for the second.

RRIRARPPRLPRPRPRPNGIPRP and RRIRYRPPRLPRPRPRPWPAPRP are within 0.2 log units of each other in “shrunken log2 fold change” value: -0.109 for the first, 0.00297 for the second.

First: RRIRHRPPRLPRPRPRPQLAPRP
Second: RRIRTRPPRLPRPRPRPTWLPRP
The “shrunken log2 fold change” value of the first is lower: 0.0733 for the first, 0.511 for the second.

RRIRTRPPRLPRPRPRPIQRPRP and RRIRHRPPRLPRPRPRPCYIPRP are within 0.2 log units of each other in “shrunken log2 fold change” value: 0.0582 for the first, -0.0479 for the second.

Going from RRIRNRPPRLPRPRPRPPERPRP to RRIRKRPPRLPRPRPRPCNDPRP, the “shrunken log2 fold change” value falls from 0.537 to -0.0241.

RRIRNRPPRLPRPRPRPYKEPRP and RRIRSRPPRLPRPRPRPEQLPRP are within 0.2 log units of each other in “shrunken log2 fold change” value: -0.0525 for the first, -0.0808 for the second.

RRIRNRPPRLPRPRPRPTCEPRP and RRIRYRPPRLPRPRPRPDTNPRP are within 0.2 log units of each other in “shrunken log2 fold change” value: -0.0176 for the first, -0.0185 for the second.

Going from RRIRERPPRLPRPRPRPSGWPRP to RRIRNRPPRLPRPRPRPAWLPRP, the “shrunken log2 fold change” value rises from -0.0693 to 0.276.

RRIRFRPPRLPRPRPRPIQWPRP and RRIRERPPRLPRPRPRPDARPRP are within 0.2 log units of each other in “shrunken log2 fold change” value: 0.0986 for the first, -0.0768 for the second.

First: RRIRYRPPRLPRPRPRPQRPPRP
Second: RRIRGRPPRLPRPRPRPGVVPRP
The “shrunken log2 fold change” value of the first is lower: 0.376 for the first, 1.43 for the second.

RRIRCRPPRLPRPRPRPIRQPRP and RRIRERPPRLPRPRPRPQMVPRP are within 0.2 log units of each other in “shrunken log2 fold change” value: -0.0914 for the first, -0.0708 for the second.

Compared with RRIRPRPPRLPRPRPRPNTQPRP, RRIRERPPRLPRPRPRPGKVPRP is higher in “shrunken log2 fold change” value: -0.159 for the first, 0.206 for the second.

Compared with RRIRCRPPRLPRPRPRPSLDPRP, RRIRMRPPRLPRPRPRPQSEPRP is higher in “shrunken log2 fold change” value: -0.203 for the first, 0.446 for the second.

RRIRFRPPRLPRPRPRPERQPRP and RRIRHRPPRLPRPRPRPVMGPRP are within 0.2 log units of each other in “shrunken log2 fold change” value: -0.000475 for the first, 0.0268 for the second.

Compared with RRIRIRPPRLPRPRPRPWWNPRP, RRIRWRPPRLPRPRPRPKEGPRP is higher in “shrunken log2 fold change” value: -0.0623 for the first, 0.538 for the second.

First: RRIRGRPPRLPRPRPRPKWDPRP
Second: RRIRDRPPRLPRPRPRPWCQPRP
The “shrunken log2 fold change” value of the first is higher: 0.771 for the first, -0.0971 for the second.

RRIRLRPPRLPRPRPRPEPAPRP and RRIRDRPPRLPRPRPRPCPWPRP are within 0.2 log units of each other in “shrunken log2 fold change” value: 0.0966 for the first, 0.0761 for the second.

Going from RRIRNRPPRLPRPRPRPEKRPRP to RRIRFRPPRLPRPRPRPQRPPRP, the “shrunken log2 fold change” value rises from -0.0252 to 0.203.

Compared with RRIRQRPPRLPRPRPRPEVQPRP, RRIRRRPPRLPRPRPRPMQDPRP is higher in “shrunken log2 fold change” value: -0.0138 for the first, 0.452 for the second.

RRIRERPPRLPRPRPRPHTCPRP and RRIRIRPPRLPRPRPRPWAKPRP are within 0.2 log units of each other in “shrunken log2 fold change” value: -0.0792 for the first, -0.235 for the second.

Going from RRIRVRPPRLPRPRPRPMTFPRP to RRIRGRPPRLPRPRPRPKWMPRP, the “shrunken log2 fold change” value rises from -0.0219 to 0.58.

Going from RRIRKRPPRLPRPRPRPMPTPRP to RRIRCRPPRLPRPRPRPCCPPRP, the “shrunken log2 fold change” value falls from 0.0822 to -0.316.

Going from RRIRHRPPRLPRPRPRPFRVPRP to RRIRMRPPRLPRPRPRPDGSPRP, the “shrunken log2 fold change” value rises from -0.371 to 0.107.

RRIRPRPPRLPRPRPRPFWCPRP and RRIRTRPPRLPRPRPRPNTTPRP are within 0.2 log units of each other in “shrunken log2 fold change” value: -0.0114 for the first, -0.164 for the second.

Compared with RRIRERPPRLPRPRPRPFINPRP, RRIRFRPPRLPRPRPRPVRAPRP is higher in “shrunken log2 fold change” value: -0.991 for the first, 0.495 for the second.

Compared with RRIRFRPPRLPRPRPRPLTPPRP, RRIRTRPPRLPRPRPRPLLGPRP is lower in “shrunken log2 fold change” value: 0.0478 for the first, -0.185 for the second.

Going from RRIRLRPPRLPRPRPRPHHHPRP to RRIRCRPPRLPRPRPRPYKAPRP, the “shrunken log2 fold change” value rises from -0.6 to -0.279.

Going from RRIRWRPPRLPRPRPRPTDSPRP to RRIRGRPPRLPRPRPRPGLTPRP, the “shrunken log2 fold change” value rises from -0.195 to 1.09.

Compared with RRIRSRPPRLPRPRPRPDKIPRP, RRIRWRPPRLPRPRPRPKIHPRP is lower in “shrunken log2 fold change” value: 0.11 for the first, -0.23 for the second.

First: RRIRTRPPRLPRPRPRPHHHPRP
Second: RRIRKRPPRLPRPRPRPAQPPRP
The “shrunken log2 fold change” value of the first is lower: -0.924 for the first, 0.764 for the second.

First: RRIRWRPPRLPRPRPRPFGGPRP
Second: RRIRQRPPRLPRPRPRPHTHPRP
The “shrunken log2 fold change” value of the first is higher: 0.0764 for the first, -0.342 for the second.

RRIRYRPPRLPRPRPRPNVGPRP and RRIRNRPPRLPRPRPRPPGMPRP are within 0.2 log units of each other in “shrunken log2 fold change” value: -0.00664 for the first, -0.138 for the second.

RRIRVRPPRLPRPRPRPDWMPRP and RRIRERPPRLPRPRPRPIGVPRP are within 0.2 log units of each other in “shrunken log2 fold change” value: -0.0942 for the first, 0.0489 for the second.

Going from RRIRFRPPRLPRPRPRPWDAPRP to RRIRKRPPRLPRPRPRPFKTPRP, the “shrunken log2 fold change” value rises from -0.12 to 0.427.

Going from RRIRRRPPRLPRPRPRPAIDPRP to RRIRCRPPRLPRPRPRPGGQPRP, the “shrunken log2 fold change” value falls from 0.193 to -0.218.

Compared with RRIRQRPPRLPRPRPRPYPPPRP, RRIRQRPPRLPRPRPRPNDLPRP is higher in “shrunken log2 fold change” value: -0.357 for the first, -0.0128 for the second.

RRIRVRPPRLPRPRPRPFAEPRP and RRIRRRPPRLPRPRPRPKECPRP are within 0.2 log units of each other in “shrunken log2 fold change” value: 0.171 for the first, 0.0842 for the second.

First: RRIRLRPPRLPRPRPRPMKIPRP
Second: RRIRPRPPRLPRPRPRPFGWPRP
The “shrunken log2 fold change” value of the first is lower: -0.028 for the first, 0.328 for the second.

RRIRERPPRLPRPRPRPCAFPRP and RRIRNRPPRLPRPRPRPCNYPRP are within 0.2 log units of each other in “shrunken log2 fold change” value: -0.315 for the first, -0.164 for the second.

RRIRHRPPRLPRPRPRPECVPRP and RRIRARPPRLPRPRPRPRYRPRP are within 0.2 log units of each other in “shrunken log2 fold change” value: 0.321 for the first, 0.165 for the second.

First: RRIRSRPPRLPRPRPRPSPLPRP
Second: RRIRGRPPRLPRPRPRPGDCPRP
The “shrunken log2 fold change” value of the first is lower: -0.324 for the first, 0.824 for the second.

RRIRIRPPRLPRPRPRPFYDPRP and RRIRNRPPRLPRPRPRPIKGPRP are within 0.2 log units of each other in “shrunken log2 fold change” value: -0.202 for the first, -0.104 for the second.

RRIRMRPPRLPRPRPRPSNLPRP and RRIRRRPPRLPRPRPRPTFYPRP are within 0.2 log units of each other in “shrunken log2 fold change” value: 0.00954 for the first, 0.191 for the second.

RRIRVRPPRLPRPRPRPDIMPRP and RRIRARPPRLPRPRPRPSYGPRP are within 0.2 log units of each other in “shrunken log2 fold change” value: -0.18 for the first, -0.282 for the second.

Going from RRIRDRPPRLPRPRPRPLVEPRP to RRIRQRPPRLPRPRPRPCYSPRP, the “shrunken log2 fold change” value falls from 0.331 to -0.0444.

RRIRIRPPRLPRPRPRPVQPPRP and RRIRHRPPRLPRPRPRPNERPRP are within 0.2 log units of each other in “shrunken log2 fold change” value: 0.204 for the first, 0.0404 for the second.

For RRIRWRPPRLPRPRPRPTCHPRP, the “shrunken log2 fold change” value was 0.228.
